One molecule from US5908827, “Protein from urine named component B” (Applied Research Systems ARS Holding N.V., dated 1999) can be followed below.

The experiment addresses TGF-alpha receptor obtained from A 431 cell membranes (Homo sapiens (Human), UniProt P00533). Nature of the experiment: displacement of I^125-TGF-alpha from its receptor on A 431 cell membranes (radioligand competition).

B1: Component B (other)
chain: LKCYTCKEPMTSASCRTITRCKPEDTACMTTLVTVEAEYPFNQSPVVTRSCSSSCVATDPDSIGAAHLIFCCFRDLCNSEL
modifications: SO4 group bound to Tyr (39); five disulfide bridges (urinary material)
Broadly, the Ki is the dissociation constant of the complex between target and ligand, obtained from inhibition or displacement. A low value points to a stronger hold on the target. Consider B1, for which the Ki was 0.077 nM.
